Measurements as given in the supplement of paper PMC10567573.

B1: LARP4 (parent)
chain: WTVANMEEIKKLTTDPDLILEVLR
B2: ZNF649 (parent)
chain: YQAGKPDALTKLEQGEPLWTLEDE

Variants of: B1
Experiment: protein stability index of a GFP-peptide fusion (GPS, HEK-293T) (PSI 1-6); higher = more stable
Settings: c terminus: a fixed tail appended
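Also: lentivirally expressed fusions sorted by FACS into six bins by GFP to DsRed ratio, PSI derived from sequencing read proportions per bin multiplied by bin number.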

Variant	protein stability index
L18H	2.6
L18G	2.95
L18M	2.55
L18P	2.33
L18Q	3.13
L18D	2.77
L18Y	3.46
L18E	3.67
L18R	2.87
L18W	2.54
L18I	2.5
L18S	3.05
L18K	2.8
L18T	2.26
L18N	3.53
L18A	2.71
L18F	1.92
L18C	2.34
L18V	2.99
R24I	2.14
R24P	2.37
R24E	2.53
R24C	2.3
R24K	1.82
R24F	1.74

Variant	protein stability index
R24L	1.12
R24A	2.12
R24Y	1.57
R24G	2.65
R24N	2.48
R24W	2.31
R24M	1.47
R24V	1.83
R24D	2
R24S	2.27
R24T	2.5
R24Q	2.38
R24H	1.75
V22S	2.56
V22P	2.23
V22I	2.14
V22N	3.25
V22C	2.86
V22F	2.77
V22Q	3.18
V22K	3.3
V22R	2.48
V22A	2.79
V22L	2.34
V22E	3.59

Variant	protein stability index
V22T	2.25
V22Y	2.64
V22H	3.48
V22M	1.91
V22G	2.48
V22W	2.33
V22D	3.77
L20T	2.52
L20D	3.74
L20E	3.68
L20I	2.1
L20M	2.02
L20C	2.56
L20H	2.64
L20A	3.37
L20R	2.38
L20V	2.19
L20F	2.15
L20Y	2.17
L20P	3.02
L20K	3.53
L20W	2.01
L20G	2.01
L20Q	3.64
L20S	2.1

Variant	protein stability index
L20N	3.24
E21L	1.48
E21C	1.69
E21T	1.9
E21W	2.1
E21M	2.08
E21I	1.85
E21Q	1.6
E21D	2.31
E21H	1.58
E21K	2.36
E21F	1.63
E21N	2.32
E21S	1.66
E21G	2.21
E21R	1.92
E21Y	2.12
E21A	2.1
E21V	1.86
E21P	1.98
I19A	2.49
I19M	2.73
I19Q	3.12
I19S	3.09
I19H	2.82

Variant	protein stability index
I19K	3.21
I19L	2.12
I19D	3.77
I19V	1.59
I19G	2.26
I19Y	2.67
I19N	2.91
I19P	3.42
I19T	2.96
I19F	2.18
I19C	1.96
I19W	2.47
I19E	3.4
I19R	3.21
D17Y	1.53
D17F	1.77
D17Q	2.32
D17G	1.51
D17T	1.77
D17I	1.25
D17R	1.86
D17V	1.98
D17L	1.52
D17C	1.44
D17H	1.88

Variant	protein stability index
D17M	2.16
D17E	1.79
D17K	2.05
D17S	2.02
D17W	1.49
D17P	2.2
D17N	1.93
L23R	2.47
L23V	2.85
L23Q	2.63
L23S	3.27
L23N	3.56
L23A	2.37
L23T	3.08
L23Y	3.06
L23M	2.12
L23I	2.65
L23H	2.61
L23F	2.46
L23W	2.96
L23E	2.96
L23K	3.28
L23P	2.89
L23C	3.17
L23D	4.03

Variants of: B2
Experiment: as above
Settings: c terminus: a fixed tail appended

Variant	protein stability index
Q2E	5.66
Q2F	4.6
Q2L	3.1
Q2T	5.05
Q2A	3.68
Q2S	4.99
Q2I	3.29
Q2R	5.15
Q2C	3.87
Q2K	4.58
Q2Y	3.56
Q2H	3.08
Q2P	4.8
Q2M	4.63
Q2G	4.38
Q2V	2.53
Q2D	5.48
Q2N	4.22
A8W	1.18
A8K	4.85
A8I	4.08
A8E	5.31
A8G	4.87

Variant	protein stability index
A8T	3.95
A8D	4.94
A8C	3.61
A8P	4.27
A8R	4.65
A8L	3.56
A8Q	4.41
A8V	3.51
A8H	4.04
A8F	2.91
A8N	4.49
A8M	3.83
A8S	4.46
D7T	3.59
D7C	2.37
D7V	3.28
D7N	3.26
D7K	3.66
D7P	4.16
D7L	3.15
D7Y	2.06
D7H	4.18
D7R	3.65

Variant	protein stability index
D7I	2.61
D7A	3.4
D7E	4.77
D7Q	3.58
D7F	2.49
D7S	3.99
Y1Q	5.46
Y1N	5.22
Y1H	5.25
Y1S	5.54
Y1F	3.39
Y1P	4.5
Y1R	5.16
Y1T	5.57
Y1C	5.06
Y1W	4.7
Y1G	4.71
Y1I	5.01
Y1L	4.51
Y1M	4.75
Y1D	5.21
Y1A	4.88
Y1K	5.51

Variant	protein stability index
A3N	4.71
A3I	4.51
A3L	4.26
A3Q	4.75
A3V	4.42
A3Y	4.25
A3M	4.1
A3W	2.2
A3P	4.36
A3H	4.14
A3K	4.75
A3E	4.65
A3F	3.64
A3C	3.83
A3R	3.66
A3T	4.54
G4Y	3.59
G4S	4.4
G4H	4.58
G4L	4.17
G4Q	4.08
G4E	4.38
G4F	4.8

Variant	protein stability index
G4P	4.63
G4A	4.68
G4I	4.22
G4T	3.97
G4R	3.53
G4N	4.92
G4C	4.47
G4K	4.18
G4D	5.05
K5F	2.76
K5D	4.01
K5V	3.03
K5L	4.05
K5N	4.84
K5T	4.6
K5A	4.48
K5E	4.59
K5I	4.02
K5P	5
K5M	4.38
K5Y	2.6
K5C	4.72
K5S	4.48

Variant	protein stability index
K5R	3.31
L9C	4.63
L9I	4.69
L9Q	4.67
L9D	5.48
L9S	4.9
L9P	4.38
L9E	4.93
L9Y	4.54
L9G	4.55
L9K	4.86
L9M	3.61
L9N	3.99
L9T	4.71
L9H	4.04
L9R	4.29
L9A	4.95
L9W	1.86
L9V	4.62
L9F	4.01
K11I	4.54
K11Q	4.76
K11C	4.45

Variant	protein stability index
K11N	4.51
K11H	4.78
K11A	4.66
K11L	4.23
K11D	4.86
K11F	3.37
K11M	4.77
K11P	5.28
K11R	4.14
K11G	4.21
K11E	4.06
T10E	4.5
T10G	3.69
T10I	4.02
T10W	2.31
T10P	4.97
T10L	4.39
T10Q	4.55
T10N	4.41
T10A	4.88
T10R	3.97
T10Y	4.58
T10C	4.28

Variant	protein stability index
T10K	3.15
T10V	4.62
T10M	4.22
T10S	4.62
T10D	4.91
P6C	4.17
P6G	4.99
P6V	4.42
P6W	2.99
P6L	3.79
P6K	4.29
P6I	4.32
P6F	3.31
P6M	3.85
P6S	4.19
P6H	3.93
P6Y	3.91
P6E	5.46
P6D	3.77
P6A	3.88
P6T	4.64
P6N	4.15
P6Q	4.15
